As a reminder, the Km is the concentration of substrate that gives half-maximal velocity. For orientation: Vmax means the rate approached at saturating substrate.

Common to all, as to assay: cells, lysate or membranes
Substrate in data set [1]: C[C@]12CCC(=O)C[C@@H]1CC[C@@H]1[C@@H]2CC[C@]2(C)[C@@H](O)CC[C@@H]12
The note with it: UDP-glucuronic acid co-substrate, 37 °C, DHT-glucuronide formation.

Substrate in data set [2]: C[C@]12CC[C@@H](O)C[C@@H]1CC[C@@H]1[C@@H]2CC[C@]2(C)[C@@H](O)CC[C@@H]12
The conditions noted are these: UDP-glucuronic acid co-substrate, 37 °C, 17-glucuronide (3α-Diol-17G) formation.

Substrate in data set [3]: C[C@]12CC[C@H]3[C@@H](CCC4=CC(=O)CC[C@@]43C)[C@@H]1CC[C@@H]2O
The conditions noted are these: UDP-glucuronic acid co-substrate, 37 °C, testosterone-glucuronide formation.

Setting [4] is: table value, text b37 prints 17.8 ± 2.0.
[5] abbreviates: table value, text b37 prints 22.5 ± 5.1.

B1: Ugt2b34 (Mus musculus) (protein)
chain: GKVLVWPMEFSHWLNLKTILDELLKKGHEVMVLRPSASLSYEVDNTSAIEFETYPTSYSLSELEEIFWESLKKYIYELPKQSFWGYFLMLQEMVWVDSKYFESLCKDVVFNKELMTKLQKSRFDVILADPFIPCGDLLAEVLKIPLVYSLRFFPGSTYEKYSGGLPLPPSYVPVVMSELSDRMTFMERVRNVIYMLCFDFWFQTFNEKNWNQLYTEVLGRPTTLSETMAKADIWLIRTYWDLEFPHPVLPNFDFIGGLHCRPAKPLPKEIEDFVQSSGEHGVVVFSLGSMVGSITEERANVIAAGLAQIPQKVLWRFEGKKPETLGSNTRLYKWIPQNDLLGHSKTRAFITHGGTNGIYEAIYHGIPVVGIPLFGDQYDNIVHLKAKGAAVRLDFLTMSSTDLHTALKTVTNDPSYKENAMRLSRIHHDQPVKPLDRAVFWIEFVMRHKGAKHLRVAAHDLSWVQYHSLDVLGFLLACVLTVMFILKKCCLFCCQKLTKAGRKKKGE
In the case of B1, in data set [1], the Km worked out at 54.9 ± 2.9 µM and the Vmax came out at 4.31e-05 µmol/min/mg. Also, in data set [2], the Km was determined as 16.3 ± 4.8 µM and the Vmax is 8.5e-06 µmol/min/mg.

B2: Ugt2b1 (Mus musculus) (protein)
chain: KVLVWPTEYSHWINMKIILDELVQRGHDVTVLISSASILIGPSNESSINFEIYSAPLSKDDLEYAFEKWVGNWTYELKKLPFWTSYSKLQKISSEYSDMIESFCKAVVWNKSLMKKLQGSKFDVVLADALVPCGELLSELLKTPLVYSLRFCPGYKCEKYSGGLPLPPSYVPVVLSELSDHMTFAERVKNMLQVLLFDFWFQTFNEKSWNQFYSDVLGRPTTLTEMMGKADIWLVRTFWDLKFPHPFLPNFDFVGGLHCKPAKPLPKEMEEFVQSSGEHGVVVFSLGSMVKNIKEEKANVVASALAQIPQKVLWRFDGKKPDTLGSNTRLYKWIPQNDLLGHPKTKAFIAHGGTNGIYEAIYHGIPIVGIPLFGDQPDNINHIVAKGAAVRVDFDTMSTTDLLTALKTVINDPSYKENAMRLSRIHHDQPMKPLDRAVFWIEYVMRNKGAKHLRPALHDLTWFQYHSLDVIGFLLVCVVAVVFIIAKCCLFCCHKTANMGKKKKE
Turning to B2, the figures for the Km in data set [1], in data set [2] (setting [4]) and in data set [3] were 17.8 ± 0.7 µM, 11.7 ± 2.0 µM and 20.3 ± 0.7 µM, respectively. In addition, the Vmax in data set [1] came out at 0.000238 µmol/min/mg; in data set [2] (setting [4]) it was 3.48e-05 µmol/min/mg; in data set [3] it was 5.12e-05 µmol/min/mg.

B3: Ugt2b5 (Mus musculus) (protein)
chain: GKVLVWPMEFSHWMNIKIILDELVQRGHEVTVLRPSAYYVLDPKKSPGLKFETFPTSVSKDNLENFFIKFVDVWTYEMPRDTCLSYSPLLQNMIDEFSDYFLSLCKDVVSNKELMTKLQESKFDVLLSDPVASCGELIAELLQIPFLYSIRFSPGYQIEKSSGRFLLPPSYVPVILSGLGGQMTFIERIKNMICMLYFDFWFQMFNDKKWDSFYSEYLGRPTTLVETMGQAEMWLIRSNWDLEFPHPTLPNVDYVGGLHCKPAKPLPKDMEEFVQSSGDHGVVVFSLGSMVSNMTEEKANAIAWALAQIPQKVLWKFDGKTPATLGHNTRVYKWLPQNDLLGHPKTKAFVTHGGANGVYEAIYHGIPMIGIPLFGEQHDNIAHMVAKGAAVALNIRTMSKSDVLNALEEVIENPFYKKNAIWLSTIHHDQPMKPLDRAVFWIEFVMRHKRAKHLRPLGHNLTWYQYHSLDVIGFLLSCVATTIVLSVKCLLFIYRFFVKKENKMKNE
Regarding B3, the values for the Michaelis-Menten constant (Km) in data set [1], in data set [2] (setting [5]) and in data set [3] were 35.6 ± 11.5 µM, 22.7 ± 5.1 µM and 65.5 ± 8.6 µM, respectively. Also, the maximal velocity (Vmax) in data set [1] was 5.05e-05 µmol/min/mg; in data set [2] (setting [5]) it was 0.000115 µmol/min/mg; in data set [3], 0.000186 µmol/min/mg.

For the origin of these results see paper PMC8945853, “Androgen Glucuronidation in Mice: When, Where, and How” (Biology, 2022).
